A word on the stoichiometry N: it is the number of molecules, sites or subunits per partner or assembly.

The assay has as its target HAF protein (trimeric recombinant H5N1 hemagglutinin ectodomain with the bacteriophage T4 fibritin fold on trimerization sequence) (influenza A virus A/Anhui/1/2005 (H5N1) | bacteriophage T4). Put plainly: SEC; […], running buffer pH 8.0 ([…]. (SEC sorts molecules by how far they enter the pores of the column.)

With “HAF protein (trimeric recombinant H5N1 hemagglutinin ectodomain with the bacteriophage T4 fibritin fold on trimerization sequence)”, the stoichiometry N came to 3.
